In US20230134571A1 (INTERNATIONAL AIDS VACCINE INITIATIVE, published 2023):

Columns and labels:
Assay in all cases: cell-based or functional assay
[1] = molecular target: HIV Env, isolate HIV-0013095-2.11 (HIV)
HIV Env, isolate CNE53 = HIV Env, isolate CNE53 (HIV)
[2] = molecular target: HIV Env, isolate 6244_13_B5_4576 (HIV)
HIV Env, isolate T263-8 = HIV Env, isolate T263-8 (HIV)
[3] = molecular target: HIV Env, isolate 1006_11_C3_1601 (HIV)
[4] = molecular target: HIV Env, isolate QH0692.42 (HIV)
[5] = molecular target: HIV Env, isolate 1394C9G1(Rev-) (HIV)
[6] = molecular target: HIV Env, isolate TRJO4551.58 (HIV)
[7] = molecular target: HIV Env, isolate REJO4541.67 (HIV)
[8] = molecular target: HIV Env, isolate WITO4160.33 (HIV)
[9] = molecular target: HIV Env of isolate 6244_13_B5_4576 (clade B) (HIV)
[10] = molecular target: HIV Env of isolate TRO.11 (clade B) (HIV)
[11] = molecular target: HIV Env of isolate ZM53M.PB12 (clade C) (HIV)
[12] = molecular target: HIV Env of isolate Q259.d2.17 (clade A) (HIV)
[13] = molecular target: HIV Env of isolate T211-9 (clade AG) (HIV)
[14] = molecular target: HIV Env of isolate 6952.v1.c20 (clade CD) (HIV)
[15] = molecular target: HIV Env of isolate T250-4 a.k.a. CRF250 (clade AG) (HIV)
[16] = molecular target: HIV Env of isolate CNE52 (clade BC) (HIV)
[17] = molecular target: HIV Env of isolate WEAU_d15_410_5017 (clade B) (HIV)
[18] = molecular target: HIV Env of isolate Q769.d22 (clade A) (HIV)
[19] = molecular target: HIV Env of isolate T235-47 (clade AG) (HIV)
[20] = molecular target: HIV Env of isolate HIV-001428-2.42 (clade C) (HIV)
[21] = molecular target: HIV Env of isolate TRJO4551.58 (clade B) (HIV)
[22] = molecular target: HIV Env of isolate ZM249M.PL1 (clade C) (HIV)
[23] = molecular target: HIV Env of isolate 62357_14_D3_4589 (clade B) (HIV)
[24] = molecular target: HIV Env of isolate T263-8 (clade AG) (HIV)
[25] = molecular target: HIV Env of isolate 3817.v2.c59 (clade CD) (HIV)
[26] = molecular target: HIV Env of isolate CAP210.2.00.E8 (clade C) (HIV)
[27] = molecular target: HIV Env of isolate R1166.c01 (clade AE) (HIV)
[28] = molecular target: HIV Env of isolate 231965.c01 (clade D) (HIV)
[29] = molecular target: HIV Env of isolate 6480.v4.c25 (clade CD) (HIV)
[30] = molecular target: HIV Env of isolate BJOX025000.01.1 (clade AE) (HIV)
[31] = molecular target: HIV Env of isolate 191084B7-19 (clade A) (HIV)
[32] = molecular target: HIV Env of isolate 6535.3 (clade B) (HIV)
[33] = molecular target: HIV Env of isolate T251-18 (clade AG) (HIV)
[34] = molecular target: HIV Env of isolate 1006_11_C3_1601 (clade B) (HIV)
[35] = molecular target: HIV Env of isolate P1981_C5_3 (clade G) (HIV)
[36] = molecular target: HIV Env of isolate Q23.17 (clade A) (HIV)
[37] = molecular target: HIV Env of isolate CNE17 (clade BC) (HIV)
[38] = molecular target: HIV Env of isolate ZM109F.PB4 (clade C) (HIV)

B1: ePGDM9 (antibody, V domains shown)
VH: QAQLVQSGPEVRKPGTSVKVSCKNPGNTLTTYDLHWVRQVPGQGLQWMGWISHEGDKKVIVERFKAKVTIDWDRSTNTAYLQLSGLTSEDTAVYYCAKGSKHRLRDYALYDEDGALNWAVDVDYLANLEFWGQGTAVTVSS
VL: DIVLTQSPLSLSVTPGESASISCKSSQSLIHGDRNNYLAWYVQKPGRSPQLLIDLASERASGVPDRFSGSGSRKDFTLKISRVETEDVGTYYCMQGRESPWTFGQGTKVDIK
IC80 (µg/ml) with constrains [1]: > 100 µg/mL
IC80 (µg/ml) with constrains (HIV Env, isolate CNE53): 0.029 µg/mL
IC80 (µg/ml) with constrains [2]: 50.2 µg/mL
IC80 (µg/ml) with constrains (HIV Env, isolate T263-8): 0.06 µg/mL
IC80 (µg/ml) with constrains [3]: 2.35 µg/mL
IC80 (µg/ml) with constrains [4]: > 100 µg/mL
IC80 (µg/ml) with constrains [5]: 0.005 µg/mL
IC80 (µg/ml) with constrains [6]: > 100 µg/mL
IC80 (µg/ml) with constrains [7]: 0.003 µg/mL
IC80 (µg/ml) with constrains [8]: 0.009 µg/mL

B2: PGDM1400 (antibody, V domains shown)
VH: QVHLTQSGPEVRKPGTSVKVSCKAPGNTLKTYDLHWVRSVPGQGLQWMGWISHEGDKKVIVERFKAKVTIDWDRSTNTAYLQLSGLTSGDTAVYYCAKGSKHRLRDYALYDDDGALNWAVDVDYLSNLEFWGQGTAVTVSS
VL: DFVLTQSPHSLSVTPGESASISCKSSHSLIHGDRNNYLAWYVQKPGRSPQLLIYLASSRASGVPDRFSGSGSDKDFTLKISRVETEDVGTYYCMQGRESPWTFGQGTKVDIK
IC80 (µg/ml) with constrains [1]: > 100 µg/mL
IC80 (µg/ml) with constrains (HIV Env, isolate CNE53): 0.105 µg/mL
IC80 (µg/ml) with constrains [2]: > 100 µg/mL
IC80 (µg/ml) with constrains (HIV Env, isolate T263-8): 0.081 µg/mL
IC80 (µg/ml) with constrains [3]: 7.43 µg/mL
IC80 (µg/ml) with constrains [4]: > 100 µg/mL
IC80 (µg/ml) with constrains [5]: 0.012 µg/mL
IC80 (µg/ml) with constrains [6]: > 100 µg/mL
IC80 (µg/ml) with constrains [7]: 0.017 µg/mL
IC80 (µg/ml) with constrains [8]: 0.013 µg/mL

B3: ePGDM13 (antibody, V domains shown)
VH: QAQLVQSGPEVRKPGTSVKVSCKNPGNTLTTYDLHWVRQVPGQGLQWMGWISHEGDKKVIVERFKAKVTIDWDRSTNTAYLQLSGLTSEDTAVYYCAKGSKHRLRDYALYDEDGALNWAVDVDYLANLEFWGQGTAVTVSS
VL: DIVLTQSPLSLSVTPGESASISCKSSHSLQHGDRNNYLAWYVQKPGRSPQLLLDLASERASGVPDRFSGSGSEKDFTLKISRVETEDVGTYYCMQGRESPWTFGQGTKVDIK
IC80 (µg/ml) with constrains [1]: > 100 µg/mL
IC80 (µg/ml) with constrains (HIV Env, isolate CNE53): 0.059 µg/mL
IC80 (µg/ml) with constrains [2]: > 100 µg/mL
IC80 (µg/ml) with constrains (HIV Env, isolate T263-8): 0.101 µg/mL
IC80 (µg/ml) with constrains [3]: 3.3 µg/mL
IC80 (µg/ml) with constrains [4]: > 100 µg/mL
IC80 (µg/ml) with constrains [5]: 0.011 µg/mL
IC80 (µg/ml) with constrains [6]: > 100 µg/mL
IC80 (µg/ml) with constrains [7]: 0.008 µg/mL
IC80 (µg/ml) with constrains [8]: 0.013 µg/mL

B4: PGDM1400 (antibody, V domains shown)
VH: QVHLTQSGPEVRKPGTSVKVSCKAPGNTLKTYDLHWVRSVPGQGLQWMGWISHEGDKKVIVERFKAKVTIDWDRSTNTAYLQLSGLTSGDTAVYYCAKGSKHRLRDYALYDDDGALNWAVDVDYLSNLEFWGQGTAVTVSS
VL: DFVLTQSPHSLSVTPGESASISCKSSHSLIHGDRNNYLAWYVQKPGRSPQLLIYLASSRASGVPDRFSGSGSDKDFTLKISRVETEDVGTYYCMQGRESPWTFGQGTKVDIK
IC50 (µg/ml) with constrains [9]: > 100 µg/mL
IC50 (µg/ml) with constrains [10]: 0.206 µg/mL
IC50 (µg/ml) with constrains [11]: 0.009 µg/mL
IC50 (µg/ml) with constrains [12]: 0.068 µg/mL
IC80 (µg/ml) with constrains [12]: 0.271 µg/mL
IC50 (µg/ml) with constrains [13]: 0.058 µg/mL
IC80 (µg/ml) with constrains [13]: 0.234 µg/mL
IC50 (µg/ml) with constrains [14]: 1.76 µg/mL
IC50 (µg/ml) with constrains [15]: 0.28 µg/mL
IC80 (µg/ml) with constrains [15]: 1.12 µg/mL
IC50 (µg/ml) with constrains [16]: > 100 µg/mL
IC50 (µg/ml) with constrains [17]: 0.075 µg/mL
IC50 (µg/ml) with constrains [18]: 0.007 µg/mL
IC80 (µg/ml) with constrains [18]: 0.028 µg/mL
IC50 (µg/ml) with constrains [19]: 0.011 µg/mL
IC80 (µg/ml) with constrains [19]: 0.044 µg/mL
IC50 (µg/ml) with constrains [20]: 0.014 µg/mL
IC50 (µg/ml) with constrains [21]: > 100 µg/mL
IC50 (µg/ml) with constrains [22]: 0.025 µg/mL
IC50 (µg/ml) with constrains [23]: > 100 µg/mL
IC50 (µg/ml) with constrains [24]: 0.02 µg/mL
IC50 (µg/ml) with constrains [25]: > 100 µg/mL
IC50 (µg/ml) with constrains [26]: 0.33 µg/mL
IC50 (µg/ml) with constrains [27]: 1.48 µg/mL
IC80 (µg/ml) with constrains [27]: 5.92 µg/mL
IC50 (µg/ml) with constrains [28]: 0.061 µg/mL
IC50 (µg/ml) with constrains [29]: > 100 µg/mL
IC50 (µg/ml) with constrains [30]: 0.055 µg/mL
IC80 (µg/ml) with constrains [30]: 0.22 µg/mL
IC50 (µg/ml) with constrains [31]: 0.002 µg/mL
IC80 (µg/ml) with constrains [31]: 0.008 µg/mL
IC50 (µg/ml) with constrains [32]: > 100 µg/mL
IC50 (µg/ml) with constrains [33]: > 100 µg/mL
IC80 (µg/ml) with constrains [33]: > 100 µg/mL
IC50 (µg/ml) with constrains [34]: 1.86 µg/mL
IC50 (µg/ml) with constrains [35]: 18.9 µg/mL
IC50 (µg/ml) with constrains [36]: 0.001 µg/mL
IC80 (µg/ml) with constrains [36]: 0.005 µg/mL
IC50 (µg/ml) with constrains [37]: 0.005 µg/mL
IC50 (µg/ml) with constrains [38]: 0.098 µg/mL

B5: ePGDM5 (antibody, V domains shown)
VH: QAQLVQSGPEVRKPGTSVKVSCKNPGNTLTTYDLHWVRQVPGQGLQWMGWISHEGDKKVIVERFKAKVTIDWDRSTNTAYLQLSGLTSEDTAVYYCAKGSKHRLRDYALYDEDGALNWAVDVDYLANLEFWGQGTAVTVSS
VL: DFVLTQSPLSLSVTPGESASISCKSDHSLQHGDRNNYLAWYVQKPGRSPQLLIDLASERASGVPDRFSGSGSRKDFTLKIDRVEAEDVGTYYCMQGRESPWTFGQGTKVDIK
IC80 (µg/ml) with constrains [1]: > 100 µg/mL
IC80 (µg/ml) with constrains (HIV Env, isolate CNE53): 0.081 µg/mL
IC80 (µg/ml) with constrains [2]: 75.6 µg/mL
IC80 (µg/ml) with constrains (HIV Env, isolate T263-8): 0.076 µg/mL
IC80 (µg/ml) with constrains [3]: 1.89 µg/mL
IC80 (µg/ml) with constrains [4]: > 100 µg/mL
IC80 (µg/ml) with constrains [5]: 0.009 µg/mL
IC80 (µg/ml) with constrains [6]: > 100 µg/mL
IC80 (µg/ml) with constrains [7]: 0.005 µg/mL
IC80 (µg/ml) with constrains [8]: 0.015 µg/mL
